Assay results reported in PMC4063720.

Experiments:
[1] = target: Hfq (Pseudomonas aeruginosa PAO1) (UniProt Q9HUM0); experiment: filter binding; conditions: EMSA: 10 mM Tris-HCl pH 8.0, 10 mM MgCl2, 60 mM NaCl, 10 mM NaH2PO4, 10 mM DTT, 25 ng tRNA in 10 ul, 37 C 30 min; 4% PAGE in Tris-borate; filter binding buffer …
[2] = target: HfqY25D Y25D (Pseudomonas aeruginosa PAO1) (UniProt Q9HUM0); experiment: EMSA; conditions: EMSA: 10 mM Tris-HCl pH 8.0, 10 mM MgCl2, 60 mM NaCl, 10 mM NaH2PO4, 10 mM DTT, 25 ng tRNA in 10 ul, 37 C 30 min; 4% PAGE in Tris-borate; filter binding buffer …
[3] = target: Hfq (Pseudomonas aeruginosa PAO1) (UniProt Q9HUM0); experiment: EMSA; conditions: EMSA: 10 mM Tris-HCl pH 8.0, 10 mM MgCl2, 60 mM NaCl, 10 mM NaH2PO4, 10 mM DTT, 25 ng tRNA in 10 ul, 37 C 30 min; 4% PAGE in Tris-borate; filter binding buffer …
[4] = target: HfqK56A K56A (Pseudomonas aeruginosa PAO1) (UniProt Q9HUM0); experiment: EMSA; conditions: EMSA: 10 mM Tris-HCl pH 8.0, 10 mM MgCl2, 60 mM NaCl, 10 mM NaH2PO4, 10 mM DTT, 25 ng tRNA in 10 ul, 37 C 30 min; 4% PAGE in Tris-borate; filter binding buffer …
[5] = target: Hfq (Pseudomonas aeruginosa PAO1) (UniProt Q9HUM0); experiment: competition; conditions: EMSA: 10 mM Tris-HCl pH 8.0, 10 mM MgCl2, 60 mM NaCl, 10 mM NaH2PO4, 10 mM DTT, 25 ng tRNA in 10 ul, 37 C 30 min; 4% PAGE in Tris-borate; filter binding buffer …
[6] = system: Hfq (Pseudomonas aeruginosa PAO1); experiment: filter binding; conditions: Hfq-hexamer concentration; duplicate; EMSA: 10 mM Tris-HCl pH 8.0, 10 mM MgCl2, 60 mM NaCl, 10 mM NaH2PO4, 10 mM DTT, 25 ng tRNA in 10 ul, 37 C 30 min; 4% PAGE in Tris-borate; filter binding buffer …

Row | Substance | Kd [1] [nM] | binding [2] | binding [3] | binding [4] | binding [5] | Kd [6] [nM]
1 | GAUCAGGUCGUGCGCAUCAGCGUCGAUGUCGCGGGACCGAACCUAACGCAUACGUACAGAGCAAAUGGGCUCUCCCGGGGUUACCCGGGAGGGCCUUUUUUCGUCCCGAAAAAAUAACAACAAGAGGUGAUAUCCAUGCGUCACGGCGAUAUUUCCUGCAGAAAAAA [amiE -134-+20 RNA] | 67 | no binding | binds | binds | – | –
2 | GCGUACAGGGAACACGCAACCCCGAAGGAUCGGGGAAGGGACGUCGCCAGGGAGGCGAUUCAUCAGGAUGAUGACGAGGGACUGAAGAGUGGGCGGGGUAAUACCCCGCCCCUUUUUUUUGCCUGCCGUUUUACUCGUCGCCCUGCAGUUU [RsmZ RNA] | – | – | – | – | no binding | –
3 | GGCACAACAACAAUAACAAGCAACGACGAAGACAAUAAAAACAACACGUAACGACUCCAGCACAACAAAAACAAAAUCGCGGAGGCGCAGCUAACUGAUUCUUUUGGAGAGGAGUUGCUGUCGGGACCCGUCCCGCAGCCAGUCGGAAGAAG [CrcZ151 RNA] | – | binds more weakly | binds | binds | binds | –
4 | amiE -134-+20 RNA | – | – | – | – | – | 67
